Measured values from the supplement of paper PMC6379048.

What was measured:
Test in all cases: EC50 of free RNA motif oligo competing protein binding to immobilised probe
DHX36 = molecular target: T1, DHX36 (UniProt Q9H2U1)
T1 sequence: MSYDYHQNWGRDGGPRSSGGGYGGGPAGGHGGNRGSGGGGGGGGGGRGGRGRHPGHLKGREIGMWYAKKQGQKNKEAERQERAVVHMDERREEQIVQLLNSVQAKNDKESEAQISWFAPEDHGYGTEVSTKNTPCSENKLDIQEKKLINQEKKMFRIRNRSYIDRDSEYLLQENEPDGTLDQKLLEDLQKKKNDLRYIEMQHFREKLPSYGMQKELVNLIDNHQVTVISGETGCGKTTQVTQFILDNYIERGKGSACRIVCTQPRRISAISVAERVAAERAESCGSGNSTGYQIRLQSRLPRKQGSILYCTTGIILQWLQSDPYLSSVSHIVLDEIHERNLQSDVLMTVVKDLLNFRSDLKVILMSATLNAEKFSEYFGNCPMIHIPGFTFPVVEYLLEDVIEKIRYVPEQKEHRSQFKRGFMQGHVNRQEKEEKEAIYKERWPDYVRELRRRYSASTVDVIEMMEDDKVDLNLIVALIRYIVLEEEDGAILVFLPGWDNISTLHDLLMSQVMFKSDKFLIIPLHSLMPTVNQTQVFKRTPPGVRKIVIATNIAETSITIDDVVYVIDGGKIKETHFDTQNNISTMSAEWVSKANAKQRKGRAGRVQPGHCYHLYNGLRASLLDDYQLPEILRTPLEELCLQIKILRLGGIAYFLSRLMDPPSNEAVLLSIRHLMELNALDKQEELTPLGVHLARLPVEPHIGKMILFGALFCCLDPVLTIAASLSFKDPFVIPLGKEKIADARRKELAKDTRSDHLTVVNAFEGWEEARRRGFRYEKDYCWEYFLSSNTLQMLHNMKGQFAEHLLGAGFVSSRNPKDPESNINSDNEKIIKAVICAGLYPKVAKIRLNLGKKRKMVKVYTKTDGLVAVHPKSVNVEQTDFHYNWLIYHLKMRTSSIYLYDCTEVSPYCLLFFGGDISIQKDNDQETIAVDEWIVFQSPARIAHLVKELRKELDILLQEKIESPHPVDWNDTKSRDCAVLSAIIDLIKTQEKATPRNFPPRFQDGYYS
Method: (§1)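 Competition-binding assay: HEK293-FT cell lysate (2.5 mg protein) pre-incubated 1 h at 4°C with free motif-containing RNA oligos (0 to 30 µM, 12 doses), then pulled down with the same 5'-amino-C6 RNA oligos immobilised on NHS-Sepharose beads (30 min, 4°C). Bound proteins were quantified by label-free LC-MS/MS and normalised to the water control. EC50 came from a four-parameter log-logistic fit; Kd = EC50 x depletion factor. Random/reversed control probes are dropped.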

NKRF = molecular target: T2, NKRF (UniProt O15226)
T2 sequence: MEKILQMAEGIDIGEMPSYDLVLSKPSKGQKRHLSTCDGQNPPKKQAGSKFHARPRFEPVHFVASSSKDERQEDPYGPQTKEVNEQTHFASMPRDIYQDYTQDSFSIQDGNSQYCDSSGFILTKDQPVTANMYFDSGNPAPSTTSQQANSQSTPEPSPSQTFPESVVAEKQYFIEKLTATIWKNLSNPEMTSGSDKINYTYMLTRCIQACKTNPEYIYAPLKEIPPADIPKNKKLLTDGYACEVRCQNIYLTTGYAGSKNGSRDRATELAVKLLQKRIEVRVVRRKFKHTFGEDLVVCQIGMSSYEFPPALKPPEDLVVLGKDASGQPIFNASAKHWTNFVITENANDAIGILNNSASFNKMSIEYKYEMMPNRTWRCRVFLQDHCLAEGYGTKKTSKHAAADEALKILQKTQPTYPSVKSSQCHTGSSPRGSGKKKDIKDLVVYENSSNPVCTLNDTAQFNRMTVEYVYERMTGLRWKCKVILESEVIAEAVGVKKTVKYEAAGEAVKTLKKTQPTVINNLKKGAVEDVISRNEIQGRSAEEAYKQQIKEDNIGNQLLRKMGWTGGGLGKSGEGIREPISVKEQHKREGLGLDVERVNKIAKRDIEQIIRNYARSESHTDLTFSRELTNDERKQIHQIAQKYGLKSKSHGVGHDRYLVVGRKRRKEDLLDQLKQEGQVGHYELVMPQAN
Method: as §1

SKIV2L2 = molecular target: T3, SKIV2L2 (UniProt P42285)
T3 sequence: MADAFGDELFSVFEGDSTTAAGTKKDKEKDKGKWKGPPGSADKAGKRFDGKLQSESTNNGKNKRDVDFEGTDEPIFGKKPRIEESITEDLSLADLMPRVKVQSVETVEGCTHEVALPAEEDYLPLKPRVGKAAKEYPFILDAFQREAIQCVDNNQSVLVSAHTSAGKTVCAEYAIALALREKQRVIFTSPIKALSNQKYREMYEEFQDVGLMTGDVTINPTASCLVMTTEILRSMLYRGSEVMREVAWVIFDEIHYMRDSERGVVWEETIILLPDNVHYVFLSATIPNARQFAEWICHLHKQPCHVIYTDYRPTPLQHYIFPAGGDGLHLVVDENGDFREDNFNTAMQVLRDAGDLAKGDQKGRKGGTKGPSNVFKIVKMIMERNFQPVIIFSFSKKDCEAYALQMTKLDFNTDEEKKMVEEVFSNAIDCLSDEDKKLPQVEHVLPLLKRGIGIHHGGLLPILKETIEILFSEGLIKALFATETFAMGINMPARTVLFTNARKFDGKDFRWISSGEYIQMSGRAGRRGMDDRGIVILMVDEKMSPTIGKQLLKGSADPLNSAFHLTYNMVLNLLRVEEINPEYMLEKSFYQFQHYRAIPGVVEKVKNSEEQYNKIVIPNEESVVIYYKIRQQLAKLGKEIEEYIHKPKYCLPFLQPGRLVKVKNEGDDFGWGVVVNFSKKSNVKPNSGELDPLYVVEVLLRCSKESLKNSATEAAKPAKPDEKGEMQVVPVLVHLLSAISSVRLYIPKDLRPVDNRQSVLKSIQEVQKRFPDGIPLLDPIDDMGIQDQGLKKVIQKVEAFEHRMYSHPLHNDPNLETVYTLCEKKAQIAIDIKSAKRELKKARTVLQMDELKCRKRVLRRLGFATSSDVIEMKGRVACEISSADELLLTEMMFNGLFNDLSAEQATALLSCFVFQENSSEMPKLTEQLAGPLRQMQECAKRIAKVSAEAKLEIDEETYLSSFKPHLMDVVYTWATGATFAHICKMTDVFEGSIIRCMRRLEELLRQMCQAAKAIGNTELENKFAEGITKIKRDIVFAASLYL
Method: as §1

Sequence	EC50 (DHX36)	EC50 (NKRF)	EC50 (SKIV2L2)
AAUAAA	3.29 µM	1.18 µM	2.88 µM
CUGUCCU	5.03 µM	0.554 µM	3.47 µM
UAUUUAU	1.01 µM	0.38 µM	0.619 µM
